# Assay: yeast display, Sf9 membrane polyspecificity reagent, FACS + sequencing; frameworks hold sequencing errors
# Method in brief: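 A nanobody's polyreactivity label depends on the gate it was sorted from. Yeast display cells were stained with 10% biotinylated, detergent-solubilized Sf9 membrane reagent for 1 hour at 4 °C, enriched on streptavidin microbeads and sorted by FACS. The low and high (top ~1%) gates were set on anti-HA fluorescence for expression and streptavidin fluorescence for reagent binding.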
row,Sequence,polyreactivity (PSR sort gate)
1,QVQLVESGGGLVQAGGSLRLSCAASGRTFSYYAMGWYRQAPGKERELVAVITSSGGSTSYADSVKGRFTISRDNAKNTVYLQMNSLKPEDTAVYYCAADPLAVSWAYYLFGVDYWGQGTQVTVSS,high polyreactivity
2,QVQLVESGGGLVQAGGSLRLSCAASGSTFFFYAMGWYRQAPGKERELVAAISRSGVSTYYADSVKGRFTISRDNAKNNVYLQMNSLKPEDTAVYYCAKGGSRDRYGYWGQGTQVTVSS,high polyreactivity
3,QVQLVESGGGLVQAGGSLRLSCAASGRIFGRYAMGWYRQAPGKERELVAAITSGGRTSYADSVKGRFTISRDNAKNTVYLQMNSLKPEDTAVYYWNVVSRNSIRFDYWGQGTQVTVSS,high polyreactivity
4,QVQLVESGGGLVQAGGSLRLSCAASGFIFKAYAMGWYRQAPGKERELVASITSGDSTNYADSVKGRFTISRDNAKNTVYLQMNSLKPEDTAVYYCNADGWRWHRRKWVYGYDYWGQGTQVTVSS,low polyreactivity
5,QVQLVESGGGLVQAGGSLRLSCAASGSIVYSYAMGWYRQAPGKERELVATISWSGGRTNYADSVKGRITISRDTAKNSVYLLMNSLKPVDTAVYYCAADIPPWGGDYWGQGTQVTVSS,low polyreactivity
6,QVQLVESGGGLVQAGGSIRLSCAASGSTYGTNTMGWSRQAPGKERELVAGITSGGNTNYADSVKGRFTISRDNAKNTVYLQMNSLKPEDSAVYYCAPRYIYYYAYGYNYWGQGTHVTVSS,high polyreactivity
7,QVQLVESGGGLVQAGGSLRLSCAASGLIFTRNAMGWYRQAPGKERELVASISNSGGSTYYADSVKGRFTISRDNAKNTVYLQMNSLKPEDTAVYYCAAPTHLHGHGNQNEFYYWGQGTQVTVSS,low polyreactivity
8,QVQLVESGGGLVQAGGSLRLSCAASGNIFSRNAMGWYRQAPGKERELVASIRWSGGSTYADSVKGRFTISRDNAKNTVYLQMNSLKPEDTAVYYCAADSLHGRKFRGVDYWGQGTEVTVSS,low polyreactivity
9,QFQLVESGGGLVQAGGSLRLSSAPSGIIFPYYAMGWYRQAPGKERELVAAISRTGSTYYADSVKGRFTISRDNAKNTVYLQMNRLNPEVTAVYYCAARTYYSQGTSSVSLQQYGYWGEGTQVTVSS,low polyreactivity
10,QVQLVESGGGLVQAGGSLRLSCAASGSTFPVYVMGWYRQAPGKERELVATITIVVSTKYADSVKGRFTISRDNAKNTVYLQMNSLKPEDTAVYYCAKDDVYRDSYLVFDGEMDYWGQGTQVTVSS,low polyreactivity
11,QVQLVESWGGLVQAGGSLRLSCAASGRILNYYDMGWYRQAPGKERELVAGISRGGSTTYADSVKGRFTISRDNAKNTVYLQMISLKPEDTAVYYCNADRSHYWLPYGVRFDYWGQGTQVNVSS,low polyreactivity
12,QVQLVESAVGLVQAGGSLPLSCDASSSTIYPYAMGWYRQAPGKERELVAAISSGGSTSYADSVKGRFTISRDNAKNTVYLQMNSLKPEDTAVYYCNADPLQCKLWTYFFGFPGYYWGQGTQVTVSS,low polyreactivity
13,QVQLVESGVGLVQAGGSLRLSCAASGSTFKFYSMGWYRQAPGTERELVASITSSSGPTYFADSVKGRFTNSLDNAKNTVYLQMNSLKQEDTAVYYCAKRPIRYYHLLRGNYWGHGTQVTVSS,low polyreactivity
14,QVQLVESGGGLVQAGGSLRLSCAASGGTFDSYAMGWYRQAPGKERELVAAITQSGGRTYYADSVKGRFTISRDNAKNTDYLQMNSLKPEDTAVYYCAAKGITRYGYWGQGTQVTVSS,high polyreactivity
15,QVQLVESGGGLVQAGGSLRLSCAASGSIFSSYAMGWYRQAPGKDRELVAAITRSGGSTYYADSVKGRFTISRDNAKNTVYVQMNSLKPEDTAVYYCNARGKGHYYWGQGTQVTVSS,high polyreactivity
16,QVQLVESGGGLVQAGGSLRLSCAASGSTFNIYVMGWYRQAPGKERELVAAITTSGRTYYADSVKGRFTISRDNAKNTVYLQMNSLKPEDTAVYYCAAVPVRYRYSYGYYYWGQGTQVTVSS,high polyreactivity
17,QVQLVESGGGLVQAGGSLRLSCAASGFTFVRYAMGWYRQAPGKERELVAVISRSGGSTNYADSVKGRFTISRDNAKNTVYLQMNSLKPEDTAVYYCAASLQYRRLVKGGDYWGQGTQVTVSW,high polyreactivity
18,QVQLVESAGGLVQAGGSLRLSCAASGSTFFTYTMGWYRQAPGKERELVAAISSGGSTYYADSVKGRFTISRDNAKNTVYLQMNSLKPEDTAVYYLLRGQGTQVTVSS,low polyreactivity
19,QVQLVQSGGGLVQAGGSLRLSCAASGSIFLYYVMGWYRQAPGQERELVAAITWDGGSTYYADSVKGRFTISRDNAKNTVYLQMNSLNPEDTAVYFCAARVASKYLVYRKRPSRYDYWGQGTQLTVSS,low polyreactivity
20,QVQLVESGGGLVQAGGSLRLSCAASGFIFYNYAMGWYRQAPGKVRELVAAISASGGRTYYADSVKGRFTISRDNAKNTVYLQMNRLKPEDTAVYYCNARVNYKGYDYWGQGTQVTVSS,high polyreactivity
21,QVQVVESGGGLVQAGGSLRLRCAASGRIFAHYAMGWYRQAPGKEREMVAAISSSGTRTYYADSVKGRFTISRDNAKKTVYLQMNSLKPEDTAVYYCAKDSYHTVWGGYWGQGTQVTVSS,high polyreactivity
22,QVQLVESGGGLVQAGGSLRLSCAASGRTFGTYAMGWYRQAPGKEREFVAAISRNGGSTYYADSVKGRFTISRDNAKNTVYLQMNSLKPEDTAVYYCATGVLWSAYRYRPNLGYDDWGQGTQVTVSS,low polyreactivity

row,Sequence,polyreactivity (PSR sort gate)
1,QVQLVESGGGLVQAGGSLRLSCAASGSTFRRYAMGSYRQAPGKERELVAAISVSGGRTSYADSVKGRFTISRDNAKNTVYLQMNSLKPEDTAVYYCNADYYKRMDYWGQGTKVTVSS,high polyreactivity
2,QVQLVESVGGLVQAGGSLRLSCAASAFNFDYNAMGWYRQAPGKERELVAVISSSGSRTYYADSVKGRFTISRDNAKNTVYLQMNSLKPEDTAVYYCAAARIGTLDYWGQGTQVTVSS,high polyreactivity
3,QVQLVESGGGLVQEGGSLRLSCAASGRTFAIYTMGCYRQAPGKERELVATNSGSAGNTYYADSVKGRYTISRDNAKNTVYLQMNSLIPEDTAVYYCAARQRKSRQIVLLDYWGQGTQVTVSS,high polyreactivity
4,QVQLVESGGGLVQAGGSLRLSCAASGSIFAYYAIGWYRQAPGKEREFVAAISISGGSTNYADSVKRRFTISRDNAKNTVYLQMNSLKPEDTAVYSCAATSRWSSFGFYGQYNFWGQGTQVTVSS,high polyreactivity
5,QVQLVESGGGLVQPGGSLRLSCAASGSIASYAMGWYRQAPGKERELVAGISWSGGSTYYADSVKGRFTISRDNAKNTVYLQMNSLKPEDTAVYYCNAYSAFVPPTRGYYWGQGTQVTVSS,high polyreactivity
6,QVQLVESGGGLVQAGGSLRLSCAASGRTFIYYAMGWYTQAPRKERDYVAIITWNGTSTNYADSVKGRFTISRDNAKNTVYLQMNSLYPEDTAVYYCAASFWTDYYRYDYWGQGTQVTVSS,low polyreactivity
7,QVQLVESGGGLVQAGGSLRLSCAASGRTFLGYAMGCYRQAPGKERELVATITKRGSSTYYADSVKGRFTISRDNANNTVYLQMTSLKPEDTAVYYCAARRYPRRFAIDYWGQGTQVTVSS,high polyreactivity
8,QVQLEESGGGLVQAGGSHRLSCAASGIIFRWYTMGWYRQAPGKERELVAAISTSTGSTYYADSVKGRFTISRDNAKNTVYLQMNSLKPEDTGVYYCAAEYAYWNYESYYWGQGTQVNVSS,high polyreactivity
9,QVQLQESGGGLVQAGGSLRLSGAASGSISSRDAMGWYRQAPGKEREFVATIASGTTTYYADSVKGSFTISRDNAENTVYLQTNSLKPEDTAVYYCAAPTIQIYPFYYWGQGTQVTVSS,high polyreactivity
10,QVQLVESGGGLVQAGGRLRLSCAASGFTFTRYAMGWYRQAPGKERELVAAISWSGGSTYYADSVKGRFTISRDNAKNTVYLQMNSLKPEDTAVYYCAKRGTVRQGGYGYWGQGTQVTVSS,high polyreactivity
11,QVQLVESGGGLVQAGRSLRLTCAASGRIFNPYAMGWYRQAPGKERELVAAISRGGRTYYADSVKGRFTISRDNAKNTVYLQMNSLKPEDTAVYYCNAGRGLREDDYWGQGTQVTVSS,low polyreactivity
12,QVQLVESGGGLVQAGGSLRLRCAASGFIFGRYTMGWYRQAPGKERELVAAISSRGGSTYYADSVKGRFTISRDNAKNTVYLQMNSLKPEDTAVYYCAADEIYCYDYWGQGTQVTVSS,high polyreactivity
13,QVQLVESGGGLVQAGGSLRLSCDASGSILWLNAMGWYRQAPGKERELVADITRGGSTYYADSVKGRFTISRDNAKNTVYLQMNSLKPEDTAVYYCAARLYGGYDWGQGTQVTVSS,high polyreactivity
14,QVQLVESGGGLVQAGGSLRLSCAASGSTFGWNAMGWYRQAPGKERELVAAISRSGGRTYYADSVKGRFTISRDNAKNTVYLQMNSLKPEDTAVYYCAADRSTTGGLRGYWGQGTQVTVSS,high polyreactivity
15,QVQLVESGGGLVQAGGSLRLSCAASGRTFYYAMGWYRQAPGKERELVASITWSGGITTYADSVKGRFTISRDNAKNTVYLQLNSLKPEDTAVYYCAAQVIKGRTYQLGDYWGQGTQVTVSS,high polyreactivity
16,QVQLVESGGGLVQAGGCLRLSCAASGFIFRRNALGWYSEAPGKERELVAAMGSRGTATDYADSVKGRFTISRDNAKKTVYLQMNRLNPEDTAVDYCAKSVVAWGPNFRPNHTRGYYWGQGTQATVSS,low polyreactivity
17,QVQLVESGGGLVQAGGSLRLSCAASGSTFRYYAMGWYRQAPGKEREFVAAITASGVTTYYADSVKGRFTISRDNAKNTVYLQMNSLKPEDTAVYYCAARLYYNYRGRYNYWGQGTQVTVSS,high polyreactivity
18,QVQLVESGGGLVQAGGSLRLSCAASVRTLPSYAMGWYRQAPGKERELVAAISQSGGSTYYADSVKGRFTISRDNAKNTVYLQMNSLKPEDTAVYYCNAGYYYKYSPRRFDYWGQGTQVTVSS,high polyreactivity
19,QVQLVETGGGLVQAGGRLRLSCAASGRIFVYYDMGWSIQAPGKERELVAAITSGGDRTYYADSVKGRFTISRDNAKNTVYLQMNSLKPEDTAVYYCNTYYYPYGYWGQGTQVTVSS,high polyreactivity
20,QVQLVESGGGLVQAGGSLRLSCAASGSIFQPYGMGWYRQAPGKERELVASIRGSAGSTHYADSVKGRFTISRDNAKYTVYLQMNSLKPEDTAVDYCAARAVASHFSPSLYGYWGHGTQVTVSS,high polyreactivity
21,QVQLVESGGGLVQAGGSLRLSCAAYGSIFGGNAMGWYRQAPGKERELVARITDRGGSTDYADSVKGRFTISRDNAKNTVFLHMNSLKREDTAVYYCAKRGDRYEQRPRDYWGQGTQVTVSS,low polyreactivity

# — the nanobody polyreactivity screen of Harvey et al. (2022)
